For five substances, Kd and ratio to parent results are on record in PMC8282340.

The target in experiment [1] is fluorescent NOXA peptide (human). Briefly: FP. Conditions: natural protein.
The target in experiment [2] is fluorescent BID peptide (human). As to the kind of experiment: FP. Conditions: natural protein.
In experiment [3] the target is NOXA peptide fused to the C-terminal half of T7 RNAP. Briefly: luciferase assay. Conditions: parent: est. 1.0; read off a plot.

A word on the Kd: it is the concentration at which binding is half-saturated. Low readings indicate a tighter complex, high ones a looser complex.

human MCL-1 fused to the N-terminal half of T7 RNAP, sequence (Q07820 whole entry, the tested form may be a part): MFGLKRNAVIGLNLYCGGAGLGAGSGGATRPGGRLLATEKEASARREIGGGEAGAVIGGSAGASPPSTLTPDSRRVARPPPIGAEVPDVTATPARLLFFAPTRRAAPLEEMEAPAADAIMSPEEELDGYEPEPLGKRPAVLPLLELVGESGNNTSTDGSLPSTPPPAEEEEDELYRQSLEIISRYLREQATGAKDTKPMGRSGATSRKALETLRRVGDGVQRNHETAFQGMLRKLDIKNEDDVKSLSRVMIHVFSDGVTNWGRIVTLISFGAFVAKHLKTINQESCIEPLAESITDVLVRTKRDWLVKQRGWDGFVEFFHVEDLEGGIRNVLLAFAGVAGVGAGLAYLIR
fluorescent NOXA peptide (human), sequence (Q13794 19-43): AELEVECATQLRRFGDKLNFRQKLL
fluorescent BID peptide (human), sequence (P55957 79-99): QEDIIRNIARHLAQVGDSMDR

For “human MCL-1 fused to the N-terminal half of T7 RNAP”, the results for the Kd in experiment [1] and in experiment [2] were 9.79 nM and 14.7 nM, respectively.

Turning to “human MCL-1 fused to the N-terminal half of T7 RNAP a167T; g202S”, the ratio to parent in experiment [3] is 1.1.

Consider “human MCL-1 fused to the N-terminal half of T7 RNAP g202N; d263A”, for which, in experiment [3], the ratio to parent was found to be 0.84.

As to “human MCL-1 fused to the N-terminal half of T7 RNAP n200S; f258V”, in experiment [3], the ratio to parent is 3.8.

As for “human MCL-1 fused to the N-terminal half of T7 RNAP v189G”, in experiment [3], the ratio to parent was 3.8.
